This note sets out measurements from article PMC11233575, “Unlocking the function promiscuity of old yellow enzyme to catalyze asymmetric Morita-Baylis-Hillman reaction” (Nature Communications, 2024).

Data set [1] concerns the molecule itself. As to the kind of experiment: crystal structure; apo-GkOYE.8 at 15 mg/mL, hanging drop, 0.1 M glycine pH 9.0, 25% (w/v) polyethylene glycol 2000, 15% (w/v) glycerol, 20 °C; 3.11 Å.
Substrate in data set [2]: O=C1C=CCC1
In words: initial velocity of MBH adduct formation by HPLC, Michaelis-Menten fit. The data set is classed as biochemical, Geobacillus kaustophilus. To be noted: 4 mM 4-nitrobenzaldehyde, PBS pH 10.0, 3% methanol, 25 °C. The source says:
(§1) initial velocity of MBH adduct formation by HPLC, Michaelis-Menten fit on GkOYE

Substrate in data set [3]: O=Cc1ccc([N+](=O)[O-])cc1
Described as above. The data set is classed as biochemical, Geobacillus kaustophilus. As to conditions: 5 mM 2-cyclopenten-1-one, PBS pH 10.0, 3% methanol, 25 °C.
Excerpt: as §1

[4] abbreviates: GkOYE.8, MBH reaction, no FMN, covalent intermediate at C26.

B1: GkOYE.8 (GkOYE^Q102A/Y169F/R215A/R308A) (enzyme, Geobacillus kaustophilus)
chain: MNTMLFSPYTIRGLTLKNRIVMSPMCMYSCDTKDGAVRTWHKIHYPARAVGQVGLIIVEATGVTPQGRISERDLGIWSDDHIAGLRELVGLVKEHGAAIGIALAHAGRKSQVPGEIIAPSAVPFDDSSPTPKEMTKADIEETVQAFQNGARRAKEAGFDVIEIHAAHGFLINEFLSPLSNRRQDEYGGSPENRYRFLGEVIDAVREVWDGPLFVAISASDYHPDGLTAKDYVPYAKRMKEQGVDLVDVSSGAIVPARMNVYPGYQVPFAELIRREADIPTGAVGLITSGWQAEEILQNGRADLVFLGAELLRNPYWPYAAARELGAKISAPVQYERGWRF
notes: FMN-free (apo); Expressed from the plasmid pET28a-GkOYE.8; also called apo-GkOYE.8; source: E. coli BL21(DE3), purified (Strep-Tactin column; HisTrap HP column for crystallization)
A word on the stoichiometry N: it is a count of units in the complex or per binding partner. What is called Km is the concentration of substrate that gives half-maximal velocity. A word on the kcat: it is the number of substrate molecules converted per active site and unit of time at saturation. A word on the kcat/Km: it is the turnover number divided by the Michaelis constant. Turning to B1, in data set [1], the “stoichiometry N” value is 2. Also, in data set [2] (setting [4]), the Km is 4.28 mM, the kcat amounted to 0.000178 s⁻¹ and the kcat/Km was determined as 0.0417 M⁻¹ s⁻¹. Also, in data set [3] (GkOYE.8, MBH reaction, no FMN), the Km is listed as 15.98 mM, the kcat came to 0.000458 s⁻¹ and the kcat/Km stood at 0.0278 M⁻¹ s⁻¹.

B2: GkOYE (Geobacillus kaustophilus HTA426; G62W/Q102A/R215A/R308A/Y169F) (protein)
chain: MNTMLFSPYTIRGLTLKNRIVMSPMCMYSCDTKDGAVRTWHKIHYPARAVGQVGLIIVEATWVTPQGRISERDLGIWSDDHIAGLRELVGLVKEHGAAIGIALAHAGRKSQVPGEIIAPSAVPFDDSSPTPKEMTKADIEETVQAFQNGARRAKEAGFDVIEIHAAHGFLINEFLSPLSNRRQDEYGGSPENRYRFLGEVIDAVREVWDGPLFVAISASDYHPDGLTAKDYVPYAKRMKEQGVDLVDVSSGAIVPARMNVYPGYQVPFAELIRREADIPTGAVGLITSGWQAEEILQNGRADLVFLGAELLRNPYWPYAAARELGAKISAPVQYERGWRF
notes: recombinant, Strep-tagged, pET28a, E. coli BL21(DE3); Strep-Tactin purified; dimer in crystal
With B2, in data set [2] (GkOYE.9, MBH reaction), the Km was found to be 2.00 mM, the catalytic constant (kcat) worked out at 0.000181 s⁻¹ and the kcat/Km is 0.0917 M⁻¹ s⁻¹. For the same protein, in data set [3] (GkOYE.9, MBH reaction), the Km is 12.44 mM, the turnover number (kcat) was 0.000442 s⁻¹ and the kcat/Km is 0.0361 M⁻¹ s⁻¹.

B3: GkOYE (Geobacillus kaustophilus HTA426; G62N/Q102A/R215A/R308A/Y169W) (protein)
chain: MNTMLFSPYTIRGLTLKNRIVMSPMCMYSCDTKDGAVRTWHKIHYPARAVGQVGLIIVEATNVTPQGRISERDLGIWSDDHIAGLRELVGLVKEHGAAIGIALAHAGRKSQVPGEIIAPSAVPFDDSSPTPKEMTKADIEETVQAFQNGARRAKEAGFDVIEIHAAHGWLINEFLSPLSNRRQDEYGGSPENRYRFLGEVIDAVREVWDGPLFVAISASDYHPDGLTAKDYVPYAKRMKEQGVDLVDVSSGAIVPARMNVYPGYQVPFAELIRREADIPTGAVGLITSGWQAEEILQNGRADLVFLGAELLRNPYWPYAAARELGAKISAPVQYERGWRF
notes: as for B2
For B3, in data set [2] (GkOYE.13, MBH reaction), the Michaelis-Menten constant (Km) stood at 1.91 mM, the kcat was determined as 0.000189 s⁻¹ and the kcat/Km came out at 0.1 M⁻¹ s⁻¹. In data set [3] (GkOYE.13, MBH reaction), the Km was 12.10 mM, the kcat amounted to 0.000461 s⁻¹ and the kcat/Km amounted to 0.0389 M⁻¹ s⁻¹.

B4: GkOYE (Geobacillus kaustophilus HTA426; Q102A/R215A/R308A/Y169W) (protein)
chain: MNTMLFSPYTIRGLTLKNRIVMSPMCMYSCDTKDGAVRTWHKIHYPARAVGQVGLIIVEATGVTPQGRISERDLGIWSDDHIAGLRELVGLVKEHGAAIGIALAHAGRKSQVPGEIIAPSAVPFDDSSPTPKEMTKADIEETVQAFQNGARRAKEAGFDVIEIHAAHGWLINEFLSPLSNRRQDEYGGSPENRYRFLGEVIDAVREVWDGPLFVAISASDYHPDGLTAKDYVPYAKRMKEQGVDLVDVSSGAIVPARMNVYPGYQVPFAELIRREADIPTGAVGLITSGWQAEEILQNGRADLVFLGAELLRNPYWPYAAARELGAKISAPVQYERGWRF
notes: as for B2
B4: in data set [2] (GkOYE.12, MBH reaction), the Km amounted to 4.50 mM, the kcat amounted to 0.000167 s⁻¹ and the kcat/Km was 0.0361 M⁻¹ s⁻¹. In data set [3] (GkOYE.12, MBH reaction), the Km amounted to 17.28 mM, the catalytic constant (kcat) was found to be 0.000422 s⁻¹ and the kcat/Km came out at 0.025 M⁻¹ s⁻¹.

B5: GkOYE (Geobacillus kaustophilus HTA426; D247I/G62W/H167A/Q102A/R215A/R308A/Y169F) (protein)
chain: MNTMLFSPYTIRGLTLKNRIVMSPMCMYSCDTKDGAVRTWHKIHYPARAVGQVGLIIVEATWVTPQGRISERDLGIWSDDHIAGLRELVGLVKEHGAAIGIALAHAGRKSQVPGEIIAPSAVPFDDSSPTPKEMTKADIEETVQAFQNGARRAKEAGFDVIEIHAAAGFLINEFLSPLSNRRQDEYGGSPENRYRFLGEVIDAVREVWDGPLFVAISASDYHPDGLTAKDYVPYAKRMKEQGVDLVIVSSGAIVPARMNVYPGYQVPFAELIRREADIPTGAVGLITSGWQAEEILQNGRADLVFLGAELLRNPYWPYAAARELGAKISAPVQYERGWRF
notes: as for B2
Turning to B5, in data set [2] (GkOYE.11, MBH reaction), the Km came out at 1.70 mM, the kcat came to 0.00019 s⁻¹ and the kcat/Km was 0.114 M⁻¹ s⁻¹. Further, in data set [3] (GkOYE.11, MBH reaction), the Km turned out to be 11.22 mM, the kcat was found to be 0.000478 s⁻¹ and the kcat/Km was 0.0417 M⁻¹ s⁻¹.
